In patent publication US20250313612A1 (Adimab, published 2025):

Columns and labels:
[1] = target: RSV F protein of subtype B (18537) on recombinant mKate-RSV (Respiratory syncytial virus subtype B …, UniProt P13843 26-574); test: cell-based or functional assay
[2] = target: RSV F protein of subtype A (strain A2) on recombinant mKate-RSV (Respiratory syncytial virus subtype A …, UniProt P03420 26-574); test: cell-based or functional assay
[3] = target: T1, RSV F ectodomain stabilized in the postfusion conformation (F ΔFP), subtype A (Respiratory syncytial virus subtype A, UniProt P03420 26-109; P03420 147-524); test: BLI, IgG on AHQ sensors, 100 nM antigen
T1 construct: extracellular domain; trimer; also called Postfusion subtype A; Postfusion RSV F

[4] = target: T2, RSV F ectodomain stabilized in the postfusion conformation (F ΔFP), subtype B (Respiratory syncytial virus subtype B, UniProt P13843 26-109; P13843 147-524); test: BLI, IgG on AHQ sensors, 100 nM antigen
T2 construct: extracellular domain; trimer; also called Postfusion subtype B

B1: ADI-14526 (antibody, V domains shown)
VH: EVQLVESGPGLVRPSQTLSIKCSVSGGSINRGAYFWTWIRQRPGKGLEWIGSIHDTGSYYNPSLKTRVSISGDTSKNLFTLELTSLTAADTAVYYCARGRGYSYGWRYFDSWGQGTLVTVSS
VL: SYVLTQPPSVSVSPGQTARITCSGDAFPRQYSYWYQQKAGQPPVLVILKDSERPSGIPARFSGSTSGTTVTLTITGVQAEDEADYYCQSSDSSGNYVVFGGGTKLTVL
notes: IgG; also called Antibody Number 86
[1]
  Neut IC50 (µg/ml) subtype B: 9.67 µg/mL
[2]
  Neut IC50 (µg/ml) subtype A: 2.36 µg/mL
[3]
  Kd: 0.346 nM
[4]
  Kd: 0.342 nM

B2: ADI-14527 (antibody, V domains shown)
VH: QVQLVQSGAELKRPGSSVKVSCKASGVYLTSVAVNWVRQVPGHGFEWMGGILTGFGKVRHAQAFENRATLTADASTNTAYLELSGLQAEDTAAYYCAIIDPQDCTAASCFWVNWLDPWGQGTLVTVSS
VL: EIVLTQSPGTLTVSPGERATLSCRASQSVLSSHLAWYQQKPGQAPRLLIYAASSRATDVPDRFSGSGSGTDFTLTISRLEPQDFAVYYCQQYGSSPITFGQGTRLEIK
notes: IgG; also called Antibody Number 87
[1]
  Neut IC50 (µg/ml) subtype B: > 10 µg/mL
[2]
  Neut IC50 (µg/ml) subtype A: > 10 µg/mL
[3]
  Kd: 0.889 nM
[4]
  Kd: 0.645 nM

B3: ADI-14528 (antibody, V domains shown)
VH: QVQLVQSGAEVKKPGSSVKVSCKVAGGSFSNYAIAWLRQAPGQGLEWMGGIIPAFNRAMYARKFQDRVTITAYASTTTAYLDITGLRSEDTALYYCARPAGDFGDLKWVRSPFDYWGQGTLVTVSS
VL: ETTLTQSPGTLSVSPGERATLSCRASQEVGINLAWYQQKPGQAPRLLIYGASTRATDVPARFSGSGSGTEFTLTISSLQSEDFAVYYCQEYNDWPPQLTFGPGTKVDIK
notes: IgG; also called Antibody Number 88
[1]
  Neut IC50 (µg/ml) subtype B: 0.705 µg/mL
[2]
  Neut IC50 (µg/ml) subtype A: > 10 µg/mL
[3]
  Kd: 35.2 nM

B4: ADI-14529 (antibody, V domains shown)
VH: EVQLVESGGGLVKPGGSLRLSCAASGFIFRNAWMSWVRQAPGKGLEWVGRIKRTSEGGSVDYATPVQGRFSISRDDSRNTLYLQMNSLETDDTAVYYCSTGPPYSYFDSSGYSVVDYWGQGTLVTVSS
VL: QSVVTQPPSVSGTPGQRVTISCTGSSSNIGTPFDVHWYQQIPETAPKLIISGGFSRPSGVPDRFSGSQSGTSASLAISGLRSEDEGDYYCAAWDDSLSGPVFGGGTKLTVL
notes: IgG; also called Antibody Number 89
[1]
  Neut IC50 (µg/ml) subtype B: 0.991 µg/mL
[2]
  Neut IC50 (µg/ml) subtype A: 2.38 µg/mL
[3]
  Kd: 1.71 nM
[4]
  Kd: 0.798 nM

B5: ADI-14530 (antibody, V domains shown)
VH: QVQLVQSGAEVKKPGSSVKVSCKVVGGSFSNYGIGWVRQAPGQGPEWMGGIIPAFKTAKYAKKFQDRVTITADESSSTAYMEVRGLRPDDTALYYCARPEGDFGDLKWVRSPFDYWGQGTLVTVSS
VL: ETTLTQSPATLSVSPGERVTLSCRASQDVSINLAWYQQKPGQAPRLLIYGASTRATDVPARFSGSGSGTDFTLTISSLQSEDFAFYYCQEYNDWPPQLTFGPGTKVEIK
notes: IgG; also called Antibody Number 90
[1]
  Neut IC50 (µg/ml) subtype B: > 10 µg/mL
[2]
  Neut IC50 (µg/ml) subtype A: > 10 µg/mL
[3]
  Kd: 47.2 nM
[4]
  Kd: 37.6 nM

B6: ADI-14531 (antibody, V domains shown)
VH: QVQLVQSGAEVKKPGSSVKVSCKASGVILTSVAVSWVRQAPGKGFEWMGGILPGFNKVRHAQDFENRATHTADASTNTVYMELSGLKSEDTAVYYCAIIDPQDCTRASCFWVNWLAPWGQGTLVTVSS
VL: ETTLTQSPGTLTLSPGERATLSCRASQSVPSRNLAWYQQKPGQAPRLIIYAASNRATDIPDRFSGSGSGTDFTLTISRLEPQDFAVYYCQQYETSPITFGQGTKVDIK
notes: IgG; also called Antibody Number 91
[1]
  Neut IC50 (µg/ml) subtype B: > 10 µg/mL
[2]
  Neut IC50 (µg/ml) subtype A: > 10 µg/mL
[3]
  Kd: 12.6 nM
[4]
  Kd: 23.8 nM

B7: ADI-14532 (antibody, V domains shown)
VH: EVQLVESGGGLVKPGGSLRLSCAASGFIFRNAWMSWVRQAPGKGLEWVGRIKRTSEGGSVDYATPVQGRFSISRDDSRKTLYLQMNSLETDDTAVYYCSTGPPYSYFDSSGYSVVDYWGLGTLVTVSS
VL: SYELTQPPSASGTPGQRVTISCSASSSNIGDNYFYWYQQLPGKAPTLLMYGSDQRSSGVPDRFSGSQSGTSASLAISGLRSEDEADYYCAAWDDSLSGPVFGGGTQLTVL
notes: IgG; also called Antibody Number 92
[1]
  Neut IC50 (µg/ml) subtype B: 0.208 µg/mL
[2]
  Neut IC50 (µg/ml) subtype A: 0.168 µg/mL
[3]
  Kd: 0.224 nM
[4]
  Kd: 0.136 nM

B8: ADI-14537 (antibody, V domains shown)
VH: EVQLVESGGGLVKPGGSLRLSCAASGFIFRNAWMSWVRQAPGKGLEWVGRIKRTSEGGSVDYATPVQGRFSISRDDSRKTLYLQMNSLETDDTAVYYCSTGPPYSYFDSSGYSVVDYWGLGTLVTVSS
VL: QPVLTQPPSASGTPGQRVTISCSASSSNIGDNYFYWYQQLPGKAPTLLMYGSDQRSSGVPDRFSGSQSGTSASLAISGLRSEDEADYYCAAWDDSLSGPVFGGGTKLTVL
notes: IgG; also called Antibody Number 97
[1]
  Neut IC50 (µg/ml) subtype B: 0.292 µg/mL
[2]
  Neut IC50 (µg/ml) subtype A: 0.272 µg/mL
[3]
  Kd: 0.211 nM
[4]
  Kd: 0.142 nM

B9: ADI-14534 (antibody, V domains shown)
VH: EVQLVESGGGVVQPGRSLRLSCAVSGFTFSNFGMHWVRQAPGKGLEWVAAISYDGRKRFQADSVKGRFTISRDNLKNTLNLQMNSLKTEDTAVYYCAKSSRLLDWLYNMDFWGQGTTVTVSS
VL: SYVLTQPPSVSVAPGKTARITCGGNILGSSSVHWFQQKAGQAPVLVIYYDSDRPSGIPERFSGSHSGDTATLTISRVEVGDEADYYCQVWDNSNSQGVFGGGTQLTVL
notes: IgG; also called Antibody Number 94
[1]
  Neut IC50 (µg/ml) subtype B: > 10 µg/mL
[2]
  Neut IC50 (µg/ml) subtype A: > 10 µg/mL
[3]
  Kd: 1 nM
[4]
  Kd: 0.93 nM

B10: ADI-14538 (antibody, V domains shown)
VH: EVQLVESGGGVVQPGRSLRLSCAVSGFTFSNFGMHWVRQAPGKGLEWVAAISYDGRKTFQADSVKGRFIISRDNLKNTLNLQMNSLKTEDTAVYYCAKSSRFLDWLYNMDFWGQGTTVTVSS
VL: SYELTQPPSVSEAPGKTATITCGGIILGTSSVHWFQQKSGQAPVLVIYYDSDRPSGIPERFSGSHSGDTATLTISRVEVGDEADYYCQVWDNSHSQGVFGGGTQLTVL
notes: IgG; also called Antibody Number 98
[1]
  Neut IC50 (µg/ml) subtype B: > 10 µg/mL
[2]
  Neut IC50 (µg/ml) subtype A: > 10 µg/mL
[3]
  Kd: 0.35 nM
[4]
  Kd: 0.154 nM

B11: ADI-14550 (antibody, V domains shown)
VH: QVQLVQSGGGVVQPGRSLRLSCAASGFTFSDYAMHWVRQAPGKGLQWVSLISYNGRKKYYADSVKGRFTISRDDSKNTLYLQMNPLRPDDTAVYYCARDGDIVAVPAAIGLDYWGQGTLVTVSS
VL: DIVLTQSPESLAVSLGERATINCNSSQSVLYTSNNKNYLAWYQQKSGQPPKLLIYWASTRESGVPERFSGSGSGTDFTLTISSLQAEDVAVYYCQQYSSPPYTFGQGTKLEIK
[1]
  Neut IC50 (µg/ml) subtype B: > 10 µg/mL
[2]
  Neut IC50 (µg/ml) subtype A: 2.62 µg/mL

B12: ADI-14555 (antibody, V domains shown)
VH: QVQLVQSGGGLVQPGGSLRLSCAASGLTFSSYAMSWVRQAPGKELEWVSSISESGVDTYYADSVKGRFTVSRDNSKSTLYLQMSSLGGDDTAVYYCAKAYCSNKACHGGYFDYWGQGTLVTVSS
VL: ETTLTQSPDTLSLSPGERATLSCRASQSVRNYLAWYRQKPGQAPRLLIYDASNLATGIPARFSGSGSGTDFTLTISSLEPEDFAVYYCHQRSDWPLTFGPGTKVEIK
[1]
  Neut IC50 (µg/ml) subtype B: > 10 µg/mL
[2]
  Neut IC50 (µg/ml) subtype A: > 10 µg/mL

B13: ADI-14556 (antibody, V domains shown)
VH: EVQLVESGGGLVQPGGSLRLSCAASGFTFRSYWMTWVRQAPGKGLEWVASINDEGNTKYYVDSLKGRFTISRDNAKNSLYLQMNSLRAEDTAVYYCARESGLPRGAFQIWGPGTMVTVSS
VL: EIVLTQSPVTLSLSPGERATLSCRASQSVGTFLAWYQHKPGQAPRLLIYDASNRASAIPARFSGSGSGTDFTLTISSLEPEDFAVYYCQHRSDWWTFGQGTKVEIK
[1]
  Neut IC50 (µg/ml) subtype B: > 10 µg/mL
[2]
  Neut IC50 (µg/ml) subtype A: > 10 µg/mL

B14: ADI-14557 (antibody, V domains shown)
VH: QVQLQQWGAGLLKPSETLSLTCQVYGVSFSDYYWNWIRQSPGKGLEWIGDVNHIGNTDYNPSLKSRVSISVDTSKNQFSLTLRSVTAADTALYYCARGRKLFEVPPKAPDYWGQGTLVTVSS
VL: DIVMTQSPGTLSLSPGERATLSCRASQSVSSTYLAWYQQKPGQAPRLLIYGASIRATGIPDRFSGVGSGTDFTLTISRLEPEDVAVYYCQQYGSSPQTFGQGTKVEIK
[1]
  Neut IC50 (µg/ml) subtype B: > 10 µg/mL
[2]
  Neut IC50 (µg/ml) subtype A: > 10 µg/mL

B15: ADI-14558 (antibody, V domains shown)
VH: QVQLVESGGGLIQPGASLRLSCGAYGFSFSSSAMSWVRQAPGKGLEWVSAISDNGGSTYYADSVQGRFTISRDNSKNTLYLQLNRLRAEDTAIYYCAKAYCSDSCHGGYFDYWGQGTLVTVSS
VL: EIVLTQSPATLSLSPGDRATLSCRASQSVSSSFAWYQQKPGQAPRLLIYAVSNRATGIPARFSGSGSGTDFTLTISTLEPEDFAVYYCQQRSTWPLTFGPGTKVEIK
[1]
  Neut IC50 (µg/ml) subtype B: > 10 µg/mL
[2]
  Neut IC50 (µg/ml) subtype A: > 10 µg/mL

B16: ADI-14562 (antibody, V domains shown)
VH: EVQLVESGPEVKGPGSSVKVSCEASAATFSNYAISWVRQAPGQGLEWMGGFVPMLGTRNYAQKFKGRVTLTADVSTHTLYLEIGSLRFEDTAVYYCATVAGLGTSYGRYLESWGQGTLVTVSS
VL: DIRMTQSPSSVSASLGDRVTITCRASQDISTALAWYQQIPGKAPKLLIYEASSLQSGVPSRFRGSGSETDFALTISSLQPEDFATYYCQQAKSFPYTFGQGTKVEIK
[1]
  Neut IC50 (µg/ml) subtype B: 10.5 µg/mL
[2]
  Neut IC50 (µg/ml) subtype A: > 10 µg/mL

B17: ADI-14563 (antibody, V domains shown)
VH: QVQLVQSGGGLAQPGGSLRLSCAASGFIFSVYEMDWVRQAPGKGLEWLSYIDITGNSVTYADSVRGRFTISRDNARNSLYLQMDSLRVEDTAVYYCVRDSRGPTTQWLTGYFDFWGQGTTVTVSS
VL: DIRMTQSPATLSLSPGERATLSCRASQSVSNYLAWYQQKPGQAPRLLIYDVSNRATGIPARFSGSGSGTDFTLTISSLEPEDFAVYYCQQRRNWPPLTFGGGTKVEVK
[1]
  Neut IC50 (µg/ml) subtype B: > 10 µg/mL
[2]
  Neut IC50 (µg/ml) subtype A: > 10 µg/mL

B18: ADI-14551 (antibody, V domains shown)
VH: QVQLQESGPGLVKPSETLSLTCSVSGGSIKRGAYFWTWIRQRPGKGLEWIGSMHDSGDYYNPSLKTRVTILGDTTKNHFTLKLTSVTVADTALYYCARGRGYSYGWRFFDNWGQGTLVTVSS
VL: NFMLTQPPSVSVSPGHSTRITCSGDALPKQYAYWYQQKPGQAPVLIMSKDSERPSGIPERFTGSSSGTTVTLTISGVQAEDEADYYCQSGDTSGSYVVFGGGTKVTVL
notes: IgG
[3]
  Kd: 0.207 nM
[4]
  Kd: 0.195 nM
